In patent publication US9163063B2, “Peptides and nanoparticles for therapeutic and diagnostic applications” (Trustees of Dartmouth College, priority 2009, dated 2015):
Ends that are not written are not given here. * marks the point of attachment. Biotin = O=C1N[C@H]2[C@H](CS[C@H]2CCCCC(=O)*)N1

What was measured:
EGFR = EGFR expression after integrin-tail peptide in AsPC1 cells; assay type: cell-based, human; conditions: AsPC1 pancreatic adenocarcinoma cells
Text: In addition, with its PDZ domain, GIPC is associated with a vast list of transmembrane receptors, including integrin α6 and α 5 that are expressed in several pancreatic cancer cell lines. […] EGFR is a receptor tyrosine kinase highly expressed in pancreatic cancer cells and is a prognostic factor for overall survival. […] A peptide designed to disrupt the interaction between the PDZ domain and the cytoplasmic tail of integrin α 5 and α 6 (KERLTSDA, SEQ ID NO. 8) was utilized.

[1] = target: T1, PDZ domain of GIPC/synectin (Homo sapiens, UniProt O14908); experiment: Phage ELISA / phage binding assay with N-terminal biotinylated peptides; conditions: GIPC-PDZ T7 phage
T1 construct: dsDNA encoding the PDZ domain of GIPC/synectin was double-digested with EcoRI and HindIII; made in house; host or cells: T7 phage grown in E. coli BLT5403
T1 sequence (O14908 133-213 limits assumed): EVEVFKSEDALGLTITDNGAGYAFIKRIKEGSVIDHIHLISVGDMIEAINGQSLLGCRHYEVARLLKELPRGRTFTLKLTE
Description: dsDNA encoding the PDZ domain of GIPC/synectin was double-digested with EcoRI and HindIII, and the DNA (0.8 μL of a 45 nM (7.7 ng/μL) solution) was used in the ligation reaction with the T7 Select 10-3 vector arms (Novagen, 0.5 μL), along with 10× ligase buffer (0.25 μL); ATP (10 mM, 0.25 μL, final concentration 1 mM); DTT (100 mM, 0.25 μL); and T4 DNA ligase (0.5 μL, 1 unit/μL). The sample was incubated at 16° C. for 16 h. The T7 phage packaging reaction was performed by adding packaging extract (Novagen, 12.5 μL, or half the manufacturer's recommended amount) to the ligation reaction sample (2.5 μL) and allowing it to incubate for 2 h at room temperature. The reaction was stopped by the addition of a sterile LB medium (135 μL). A plaque assay was performed to determine the number of recombinant phage generated. E. coli BTL5403 was grown at 37° C. with shaking in LB/Amp50 medium (10 mL) until OD˜1.0 was reached. Top agarose (10 mL) was melted and equilibrated to this temperature. A series of dilutions was prepared prior to plating the phage. The first dilution was generated by adding packaged phage (10 μL) to LB/Amp50 (990 μL) for a total of 100-fold dilution (10^2). […] Plaques generated were counted to determine the titer and the number of recombinants generated. […]

Row | binding to the PDZ domain of GIPC/synectin [1] | Substance | EGFR expression (EGFR)
1 | – | KERLTSDA [K-E-R-L-T-S-D-A] | down regulation of EGFR
2 | not recognized | KKETAV | –
3 | not recognized | KKETEV (Biotin-KKETEV) | –
